This is an account of results in the supplement of paper PMC6755084.

The subject of the data set is F1*sub RNA substrate (template-directed ligation). Briefly: fraction ligated after 30 min (ligated reads / total reads); higher = more ligase activity; sequences stand for … in GAGACCGCAACTGAAAAGTTGT…AGTTCTGCACGTAGAAGCAAAAGGC
To be noted: 42 °C. The procedure: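 Chip-synthesised pool of F1* ligase ribozyme variants (all single and double substitutions, single, double and triple deletions in the catalytic core and GAA bulge, plus designed variants) was transcribed with T7 and reacted as a pool with excess substrate F1*sub for 30 min at 42 C in 50 mM EPPS pH 8.5, 25 mM MgCl2. Ligated and unligated bands were separated by PAGE, barcoded by RT and deep sequenced; fraction ligated = ligated reads / total reads per variant, relative activity = FL / FL of wild type (0.826). Sequences are the DNA template of the ribozyme.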
AACTTGTCGTAAGACACTTTGGATGGGTTGA [3d24] showed a fraction ligated of 0.293.

As to ACACTGTCGTAAGACACTTTGGATGGGTTGA [3d27], the fraction ligated was 0.238. The same measure for ACACTTGCGTAAGACACTTTGGATGGGTTGA [3d29]: 0.197; for ACACTTGTCGAAGACACTTTGGATGGGTTGA [3d32]: 0.475; for ACACTTGTCGTAAACACTTTGGATGGGTTGA [3d34]: 0.201. The same measure for ACACTTGTCGTAAGAACTTTGGATGGGTTGA [3d36]: 0.218; for ACACTTGTCGTAAGACACTTGGATGGGTTGA [3d39]: 0.157. ACACTTGTCGTAAGACACTTTGATGGGTTGA [3d40] gave a fraction ligated of 0.0824. ACACTTGTCGTAAGACACTTTGGAGGGTTGA [3d42] displayed a fraction ligated of 0.115. Sequence ACACTTGTCGTAAGACACTTTGGATGGGTTA [3d44] returned a fraction ligated of 0.217. Regarding ACACTTGTCGTAAGACACTTTGGATGGGTTG [3d45], the fraction ligated was 0.739. Regarding ACACTTGTCGTAAGACACTTTGGATGGGTTGA [2d2], the fraction ligated was 0.725. With ACACTTGTCGTAAGACACTTTGGATGGTTGA [3d43], the fraction ligated came out at 0.662. ACACTTGTCGTAAGACACTTTGGTGGGTTGA [3d41] came in with a fraction ligated of 0.0656. Sequence ACACTTGTCGTAAGACATTTGGATGGGTTGA [3d38] registered a fraction ligated of 0.484.

ACACTTGTCGTAAGACCTTTGGATGGGTTGA [3d37] had a fraction ligated of 0.627. ACACTTGTCGTAAGCACTTTGGATGGGTTGA [3d35] came in with a fraction ligated of 0.221. The same measure for ACACTTGTCGTAGACACTTTGGATGGGTTGA [3d33]: 0.552; for ACACTTGTCTAAGACACTTTGGATGGGTTGA [3d31]: 0.441. The same measure for ACACTTGTGTAAGACACTTTGGATGGGTTGA [3d30]: 0.407; for ACACTTTCGTAAGACACTTTGGATGGGTTGA [3d28]: 0.0846. As to ACATTGTCGTAAGACACTTTGGATGGGTTGA [3d26], the fraction ligated came to 0.0699. The same measure for ACCTTGTCGTAAGACACTTTGGATGGGTTGA [3d25]: 0.616; for ATACTGTCGTAAGACACTTTGGATGGGTTGA [3d48]: 0.361. The same measure for ATACTTGCGTAAGACACTTTGGATGGGTTGA [3d50]: 0.177; for ATACTTGTCGAAGACACTTTGGATGGGTTGA [3d53]: 0.268; for ATACTTGTCGTAAACACTTTGGATGGGTTGA [3d55]: 0.112. The same measure for ATACTTGTCGTAAGAACTTTGGATGGGTTGA [3d57]: 0.448; for ATACTTGTCGTAAGACACTTGGATGGGTTGA [3d60]: 0.473. In turn, ATACTTGTCGTAAGACACTTTGATGGGTTGA [3d61] came in with a fraction ligated of 0.291. The same measure for ATACTTGTCGTAAGACACTTTGGAGGGTTGA [3d63]: 0.0364; for ATACTTGTCGTAAGACACTTTGGATGGGTTA [3d65]: 0.0347; for ATACTTGTCGTAAGACACTTTGGATGGGTTG [3d66]: 0.244. The same measure for ATACTTGTCGTAAGACACTTTGGATGGGTTGA [2d3]: 0.478. The same measure for ATACTTGTCGTAAGACACTTTGGATGGTTGA [3d64]: 0.21; for ATACTTGTCGTAAGACACTTTGGTGGGTTGA [3d62]: 0.0395. For the sequence ATACTTGTCGTAAGACATTTGGATGGGTTGA [3d59], the fraction ligated came out at 0.446.

Sequence ATACTTGTCGTAAGACCTTTGGATGGGTTGA [3d58] showed a fraction ligated of 0.412.

Take ATACTTGTCGTAAGCACTTTGGATGGGTTGA [3d56]: the fraction ligated was 0.279. The same measure for ATACTTGTCGTAGACACTTTGGATGGGTTGA [3d54]: 0.0939; for ATACTTGTCTAAGACACTTTGGATGGGTTGA [3d52]: 0.24; for ATACTTGTGTAAGACACTTTGGATGGGTTGA [3d51]: 0.734. The same measure for ATACTTTCGTAAGACACTTTGGATGGGTTGA [3d49]: 0.0977; for ATATTGTCGTAAGACACTTTGGATGGGTTGA [3d47]: 0.0915.

On to ATCACGTCGTAAGACACTTTGGATGGGTTGA [3d105], for which the fraction ligated worked out at 0.749. The same measure for ATCACTGCGTAAGACACTTTGGATGGGTTGA [3d107]: 0.818. The same measure for ATCACTGTCGAAGACACTTTGGATGGGTTGA [3d110]: 0.775; for ATCACTGTCGTAAACACTTTGGATGGGTTGA [3d112]: 0.747; for ATCACTGTCGTAAGAACTTTGGATGGGTTGA [3d114]: 0.848. The same measure for ATCACTGTCGTAAGACACTTGGATGGGTTGA [3d117]: 0.743. Take ATCACTGTCGTAAGACACTTTGATGGGTTGA [3d118]: the fraction ligated was 0.685. The same measure for ATCACTGTCGTAAGACACTTTGGAGGGTTGA [3d120]: 0.148. The same measure for ATCACTGTCGTAAGACACTTTGGATGGGTTA [3d122]: 0.298; for ATCACTGTCGTAAGACACTTTGGATGGGTTG [3d123]: 0.74. The same measure for ATCACTGTCGTAAGACACTTTGGATGGGTTGA [2d6]: 0.739.

In the case of ATCACTGTCGTAAGACACTTTGGATGGTTGA [3d121], the fraction ligated stood at 0.46. On to ATCACTGTCGTAAGACACTTTGGTGGGTTGA [3d119], for which the fraction ligated came out at 0.108. The same measure for ATCACTGTCGTAAGACATTTGGATGGGTTGA [3d116]: 0.719. The same measure for ATCACTGTCGTAAGACCTTTGGATGGGTTGA [3d115]: 0.726; for ATCACTGTCGTAAGCACTTTGGATGGGTTGA [3d113]: 0.749; for ATCACTGTCGTAGACACTTTGGATGGGTTGA [3d111]: 0.824. Consider ATCACTGTCTAAGACACTTTGGATGGGTTGA [3d109], for which the fraction ligated turned out to be 0.756. In turn, ATCACTGTGTAAGACACTTTGGATGGGTTGA [3d108] yielded a fraction ligated of 0.823. On to ATCACTTCGTAAGACACTTTGGATGGGTTGA [3d106], for which the fraction ligated worked out at 0.761. ATCACTTGCGAAGACACTTTGGATGGGTTGA [3d142] displayed a fraction ligated of 0.743. The same measure for ATCACTTGCGTAAACACTTTGGATGGGTTGA [3d144]: 0.758.

On to ATCACTTGCGTAAGAACTTTGGATGGGTTGA [3d146], for which the fraction ligated stood at 0.835.

In turn, ATCACTTGCGTAAGACACTTGGATGGGTTGA [3d149] had a fraction ligated of 0.726. In turn, ATCACTTGCGTAAGACACTTTGATGGGTTGA [3d150] had a fraction ligated of 0.561. The same measure for ATCACTTGCGTAAGACACTTTGGAGGGTTGA [3d152]: 0.061; for ATCACTTGCGTAAGACACTTTGGATGGGTTA [3d154]: 0.567; for ATCACTTGCGTAAGACACTTTGGATGGGTTG [3d155]: 0.805. On to ATCACTTGCGTAAGACACTTTGGATGGGTTGA [2d8], for which the fraction ligated worked out at 0.836.
